Values quoted from earlier work as cited in paper PMC2820514.

Biological target: CaMKII monomer (UniProt Q9UQM7)

Kd: 1300 nM
Substance: CaMKII monomer (from UniProt Q9UQM7)
